Laboratory results reported in publication PMC7457226 (Developmental cell, 2019).
Residue numbers refer to the chain shown, from its start. Names may count otherwise.

Tests used:
Rab11 (Homo sapiens) = Rab11 (Homo sapiens) (UniProt P62491); details: cited from earlier work
WDR44 334-435 (human) = WDR44 334-435 (human) (UniProt Q5JSH3); experiment: ITC
[1] = molecular target: Rab11Q70L 6-186-WDR44 334-435 complex (human) (UniProt P62491); experiment: ITC
SEC = molecular target: the molecule itself; experiment: SEC

Chain of WDR44 334-435 (human) (Q5JSH3 334-435): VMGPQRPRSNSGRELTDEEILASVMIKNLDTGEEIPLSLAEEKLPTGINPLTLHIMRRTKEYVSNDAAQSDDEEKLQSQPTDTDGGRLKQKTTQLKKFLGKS
Chain of Rab11 (Homo sapiens) (P62491 2-213): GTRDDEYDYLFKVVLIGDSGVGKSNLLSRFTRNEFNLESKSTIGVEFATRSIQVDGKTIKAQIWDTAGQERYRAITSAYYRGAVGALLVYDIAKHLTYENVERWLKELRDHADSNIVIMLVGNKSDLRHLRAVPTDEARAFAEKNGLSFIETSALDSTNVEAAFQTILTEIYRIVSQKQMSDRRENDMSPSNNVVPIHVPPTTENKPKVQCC

Rabin8 (from UniProt Q96QF0)
Kd (Rab11 (Homo sapiens)): 40 µM

Rab11Q70L 6-186 (calorimetry) (from UniProt P62491 6-186) (domain or fragment)
Kd (WDR44 334-435 (human)): 0.54 µM

B1: Rabin8C (residues 270-460) (domain or fragment)
chain: NKSTSSAMSGSHQDLSVIQPIVKDCKEADLSLYNEFRLWKDEPTMDRTCPFLDKIYQEDIFPCLTFSKSELASAVLEAVENNTLSIEPVGLQPIRFVKASAVECGGPKKCALTGQSKSCKHRIKLGDSSNYYYISPFCRYRITSVCNFFTYIRYIQQGLVKQQDVDQMFWEVMQLRKEMSLAKLGYFKEEL
Kd [1]: 37.2 µM

B2: Rabin8 144-C (domain or fragment, human, UniProt Q96QF0-2 144-460, looked up)
chain: RLRSPSVLEVREKGYERLKEELAKAQRELKLKDEECERLSKVRDQLGQELEELTASLFEEAHKMVREANIKQATAEKQLKEAQGKIDVLQAEVAALKTLVLSSSPTSPTQEPLPGGKTPFKKGHTRNKSTSSAMSGSHQDLSVIQPIVKDCKEADLSLYNEFRLWKDEPTMDRTCPFLDKIYQEDIFPCLTFSKSELASAVLEAVENNTLSIEPVGLQPIRFVKASAVECGGPKKCALTGQSKSCKHRIKLGDSSNYYYISPFCRYRITSVCNFFTYIRYIQQGLVKQQDVDQMFWEVMQLRKEMSLAKLGYFKEEL
binding result (SEC): binds

B3: Rabin8 144-C S147A/S149A (domain or fragment, human, UniProt Q96QF0-2 144-460, looked up)
chain: B2 chain with S4A, S6A
binding result (SEC): binds

B4: Rabin8 144-C S147D/S149D (domain or fragment, human, UniProt Q96QF0-2 144-460, looked up)
chain: B2 chain with S4D, S6D
binding result (SEC): binds
